# Measured values from PMC4227796.
# T1: RecQL4_FL (Homo sapiens, UniProt O94761 1-1208)
# T1 sequence: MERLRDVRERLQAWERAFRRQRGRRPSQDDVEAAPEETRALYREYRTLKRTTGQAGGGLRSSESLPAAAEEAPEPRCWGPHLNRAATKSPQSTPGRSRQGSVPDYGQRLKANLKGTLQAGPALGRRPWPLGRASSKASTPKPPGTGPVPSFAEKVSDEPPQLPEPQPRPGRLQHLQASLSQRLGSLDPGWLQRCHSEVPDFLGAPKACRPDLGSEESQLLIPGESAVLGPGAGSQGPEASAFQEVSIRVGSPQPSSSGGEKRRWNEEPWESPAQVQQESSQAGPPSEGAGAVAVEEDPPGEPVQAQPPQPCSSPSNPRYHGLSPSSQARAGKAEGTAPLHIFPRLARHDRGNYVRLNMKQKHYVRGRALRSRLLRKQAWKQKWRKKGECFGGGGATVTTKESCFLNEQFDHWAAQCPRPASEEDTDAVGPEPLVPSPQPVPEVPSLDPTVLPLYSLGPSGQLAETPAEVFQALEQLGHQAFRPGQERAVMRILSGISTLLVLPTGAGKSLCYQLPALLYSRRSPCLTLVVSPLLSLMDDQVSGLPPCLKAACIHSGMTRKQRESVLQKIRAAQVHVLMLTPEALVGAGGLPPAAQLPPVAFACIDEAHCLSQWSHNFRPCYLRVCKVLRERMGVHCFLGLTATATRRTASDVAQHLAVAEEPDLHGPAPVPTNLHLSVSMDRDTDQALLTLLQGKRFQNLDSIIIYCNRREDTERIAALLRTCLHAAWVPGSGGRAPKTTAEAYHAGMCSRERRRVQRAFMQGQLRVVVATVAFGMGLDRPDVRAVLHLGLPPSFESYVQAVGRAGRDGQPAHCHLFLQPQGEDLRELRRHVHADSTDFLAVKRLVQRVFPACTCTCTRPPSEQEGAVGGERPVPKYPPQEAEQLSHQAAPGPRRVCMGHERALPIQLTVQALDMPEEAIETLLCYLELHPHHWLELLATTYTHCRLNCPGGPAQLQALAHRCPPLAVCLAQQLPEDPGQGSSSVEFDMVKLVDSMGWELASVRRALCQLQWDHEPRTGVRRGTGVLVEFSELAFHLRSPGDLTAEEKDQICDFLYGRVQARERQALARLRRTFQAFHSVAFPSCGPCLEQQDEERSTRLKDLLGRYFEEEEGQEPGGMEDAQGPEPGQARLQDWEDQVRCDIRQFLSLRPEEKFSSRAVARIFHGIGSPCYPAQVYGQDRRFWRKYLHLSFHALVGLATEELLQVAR
# T2: RecQL4_N388 (Homo sapiens, UniProt O94761 1-388)
# T2 sequence: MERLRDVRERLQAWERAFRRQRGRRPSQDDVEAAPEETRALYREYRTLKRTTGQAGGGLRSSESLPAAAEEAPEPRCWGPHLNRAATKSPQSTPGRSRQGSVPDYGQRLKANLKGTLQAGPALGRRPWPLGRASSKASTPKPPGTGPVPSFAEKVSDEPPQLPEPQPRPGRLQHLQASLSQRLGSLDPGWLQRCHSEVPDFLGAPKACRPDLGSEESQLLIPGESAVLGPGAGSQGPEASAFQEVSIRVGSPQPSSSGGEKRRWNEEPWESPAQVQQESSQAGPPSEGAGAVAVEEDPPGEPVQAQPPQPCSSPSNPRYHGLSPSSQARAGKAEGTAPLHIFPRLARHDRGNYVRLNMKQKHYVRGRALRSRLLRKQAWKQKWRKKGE
# B1: LB2_GC (ssDNA)
# DNA: GCAGAGGCCCGGCACGAGCTTCCCC
# Experiments:
# [1] = target: T1, RecQL4_FL; experiment: EMSA
# [2] = target: T2, RecQL4_N388; experiment: EMSA
binder,measurement,setting,value
B1,binding result,[1],binds
same,binding result,[2],binds
